In US10005846 (LIFEARC, dated 2018):
Positions count from the first letter of the chain named. One block for each binder: values may come before it.

Tests used:
rat TG2 = biological target: T1, rat TG2 (rat, UniProt Q9WVJ6 1-686, limits assumed); assay: cell-based or functional assay
T1 sequence: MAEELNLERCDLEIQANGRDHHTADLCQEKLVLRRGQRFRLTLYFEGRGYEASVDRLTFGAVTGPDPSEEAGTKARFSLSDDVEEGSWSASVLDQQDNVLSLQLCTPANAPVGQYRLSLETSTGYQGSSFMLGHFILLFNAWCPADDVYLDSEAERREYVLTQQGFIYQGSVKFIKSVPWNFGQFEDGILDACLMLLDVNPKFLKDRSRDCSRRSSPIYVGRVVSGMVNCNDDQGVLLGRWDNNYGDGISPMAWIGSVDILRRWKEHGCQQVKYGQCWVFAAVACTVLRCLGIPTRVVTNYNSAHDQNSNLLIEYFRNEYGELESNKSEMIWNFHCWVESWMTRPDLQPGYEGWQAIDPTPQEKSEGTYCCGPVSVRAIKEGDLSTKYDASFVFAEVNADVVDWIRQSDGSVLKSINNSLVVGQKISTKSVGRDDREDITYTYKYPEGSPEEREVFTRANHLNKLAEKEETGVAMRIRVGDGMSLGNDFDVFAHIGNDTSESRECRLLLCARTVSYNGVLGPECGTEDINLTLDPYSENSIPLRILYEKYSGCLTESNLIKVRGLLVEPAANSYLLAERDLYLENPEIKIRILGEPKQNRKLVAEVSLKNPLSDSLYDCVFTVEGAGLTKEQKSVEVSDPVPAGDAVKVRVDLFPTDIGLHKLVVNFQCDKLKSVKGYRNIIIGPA

[1] = biological target: T2, human transglutaminase type 2 (TG2) (human, UniProt P21980 1-687); assay: cell-based or functional assay
T2 sequence: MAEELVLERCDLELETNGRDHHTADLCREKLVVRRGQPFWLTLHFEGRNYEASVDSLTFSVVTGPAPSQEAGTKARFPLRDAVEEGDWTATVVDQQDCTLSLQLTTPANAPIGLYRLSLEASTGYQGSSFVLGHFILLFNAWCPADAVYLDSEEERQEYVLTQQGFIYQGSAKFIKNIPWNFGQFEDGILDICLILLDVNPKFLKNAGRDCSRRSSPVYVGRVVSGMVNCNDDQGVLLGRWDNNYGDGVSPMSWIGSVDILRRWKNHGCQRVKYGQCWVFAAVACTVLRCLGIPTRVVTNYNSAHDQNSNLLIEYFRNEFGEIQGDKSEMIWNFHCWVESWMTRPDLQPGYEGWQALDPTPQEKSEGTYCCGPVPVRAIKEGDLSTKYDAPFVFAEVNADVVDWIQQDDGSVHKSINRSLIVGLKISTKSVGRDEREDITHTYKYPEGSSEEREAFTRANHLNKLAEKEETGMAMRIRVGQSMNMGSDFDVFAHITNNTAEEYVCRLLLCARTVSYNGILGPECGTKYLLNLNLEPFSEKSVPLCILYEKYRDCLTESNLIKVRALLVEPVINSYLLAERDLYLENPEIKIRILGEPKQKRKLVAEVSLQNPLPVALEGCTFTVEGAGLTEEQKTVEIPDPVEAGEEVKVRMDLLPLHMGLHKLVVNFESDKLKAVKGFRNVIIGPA

[2] = biological target: T2, human transglutaminase type 2 (TG2); assay: ELISA on immobilised human TG2; r2 0.9682; EC50 95% confidence range 0.03611 to 0.06410 [continued), panel B]
Procedure: (§1) Antibody binding to human and cynomolgus monkey TG2 was determined in an ELISA assay. Clear polystyrene "Maxisorp" 96-well plates (Nunc) were coated with 50 ng purified human or cynomogulus monkey TG2 in 50 µl 0.05 M carbonate-bicarbonate buffer pH 9.6 at 4° C. overnight. Control wells were coated with 50 µl 100 µg/ml bovine serum albumin (BSA). Plates were washed 3× with 300 µl phosphate-buffered saline pH7.4 (PBS) containing 0.1% Tween 20 (PBST) and blocked with 300 µl 3% w/v Marvel skimmed milk in PBS for 1 hour at room temperature. After 3× wash with PBST, 50 µl protein-A purified chimeric or humanised anti-TG2 antibodies or human IgG1 kappa […] control antibody or CUB7402 (Abcam) were serially diluted 4-fold from a top concentration of 50 nM in PBS, and added to the plate in duplicate. […] After 3× washes with PBST, the plates were developed with 50 µl TMB substrate (Sigma) for 5 min at room temperature before stopping the reaction with 25 µl 0.5M H2SO4 and reading absorbance at 450 nm in a microtiter plate reader (BioTek EL808). Dose response curves were analysed and EC50 values and other statistical parameters determined using a 4-parameter logistical fit of the data (GraphPad Prism).

cynomolgus monkey TG2 = biological target: T3, cynomolgus monkey TG2 (cynomolgus monkey, UniProt A0A2K5VXI8 1-687); assay: ELISA on immobilised cynomolgus monkey TG2; r2 0.9383; EC50 95% confidence range 0.03303 to 0.08079 [panel B]
T3 construct: Bought recombinant protein; also called cynomogulus monkey TG2; cyano TG2
T3 sequence: T2 sequence with E4D, Q157R, N177S, H413S, I421T, Y528H, V542I
Procedure: as §1

IC50, 3H-putrescine incorporation assay (rat TG2): 0.000223 mg/ml of IgG (to inhibit 1 ng of TG2)
IC50 ratio, 3H-putrescine incorporation assay (DH2 on rat TG2 against AB-1 on human TG2) (rat TG2): 38 fold less active than AB-1 against human TG2
IC50 ratio, 3H-putrescine incorporation assay (rat TG2 against human TG2, same antibody) (rat TG2): ~6 fold less active than against human TG2
B1: DH2 murine monoclonal antibody (antibody, V domains shown)
VH: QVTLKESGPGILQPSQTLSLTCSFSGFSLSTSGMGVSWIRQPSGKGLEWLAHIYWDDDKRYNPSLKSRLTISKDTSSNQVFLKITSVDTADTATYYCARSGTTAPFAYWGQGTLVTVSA
VL: QIVLTQSPAIMSASPGEKVTMTCSASSSVSYMYWYQQKPGSSPRLLIYDTSNLASGVPVRFSGSGSGTSYSLTISRMEAEDAATFYCQQWSSSPLTFGAGTKLELK
notes: Mouse hybridoma IgG; heavy chain amplified with primer MHCG2B, kappa light chain; also called mDH001

IC50 of enzymatic inhibition, dansylated lysine incorporation into N,N-dimethylated casein [panel B] [1]: 0.925 nM
EC50 [2]: 0.0481 nM
EC50 (cynomolgus monkey TG2): 0.0517 nM
B2: cBB001 chimeric antibody (murine BB7 variable regions) (antibody, human IgG1, V domains shown)
VH: AVQLVESGGGLVKPGGSLKLSCAASGIIFSSSAMSWVRQTPEKRLEWVATISSGGRSTYYPDSVKGRFTVSRDSAKNTLYLQMDSLRSEDTAIYYCAKLISPYWGQGTTLTVSS
VL: AIKMTQSPSSMYASLGERVIITCKASQDINSYLTWFQQKPGKSPKTLIYLTNRLMDGVPSRFSGSGSGQEFLLTISGLEHEDMGIYYCLQYVDFPYTFGGGTKLEIK
notes: also called chimeric BB7
